Reference: the nanobody polyreactivity screen of Harvey et al. (2022)

Assay: yeast display, Sf9 membrane polyspecificity reagent, FACS + sequencing; frameworks hold sequencing errors
How it was run: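 Nanobodies came from a synthetic yeast display library in Saccharomyces cerevisiae BJ5465, induced with galactose for 36–48 hours and stained for 1 hour at 4 °C with 10% biotinylated, detergent-solubilized Sf9 membrane reagent. Cells were enriched on streptavidin microbeads and then FACS-sorted, with low and high (top ~1%) gates set on anti-HA fluorescence for expression and streptavidin fluorescence for reagent binding. Each polyreactivity label reflects the gate a clone came from. Genes were amplified by colony PCR, sequenced by MiSeq 2 × 250 and filtered by CDR length.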

## QVQLVESGGGLVQAGGSLRLSCAASGSTFGSNAMGWYREAPGKERELVAAIDANGGSTYYADSVKGRFTISRDNAKNTVYLQMNSLKPEDTAVYYCAAAGYWYYYVPNDYWGQGTQVTVSS
  polyreactivity (PSR sort gate): low polyreactivity

## QVQLVESGGGLVQAGGSLRLSCAASGSTFGSNAMGWYRQAPGKEREFVAAISRRGGSTYYADSVKGRFTISRDNAKNTVYLQMNSLKPEDTAVYYCAADYISLREEDYWGQGTQVTVSS
  polyreactivity (PSR sort gate): high polyreactivity

## QVQLVESGGGLVQAGGSLRLSCAASGSTFGSNAMGWYRQAPGKERELVAAIRGIVGSTYYADSVKGRFTISRDNAKNTVYLQMNSLKPEDTAVYYCNKAEVSTYYQTRSTYGGYDYWGQGTQVTVSS
  polyreactivity (PSR sort gate): low polyreactivity

## QVQLVESGGGLVQAGGSLRLSCAASGSTFGSNAMGWYRQAPGKERELVAAISWTGGSTYYADSVKGRFTISRDNAKYTVYLQMKSLKPEDTAVYYCNAYGYGYPLYRYDYWGQGTQVTVSS
  polyreactivity (PSR sort gate): low polyreactivity

## QVQLVESGGGLVQAGGSLRLSCAASGSTFGSNAMGWYRQEPGKERELVAAITGGGTTSYADSVKGRFTISRDNAKNTVYLQMNSLKPEDTAVYYCNVLFADKSDYWGQGTQVTVSS
  polyreactivity (PSR sort gate): low polyreactivity

## QVQLVESGGGLVQAGGSLRLSCAASGSTFGSYAMGWYRQAPGKERELVAAISGGGSTYYADSVKGRFTISRDNAKNTVYLQMNSLKPEDTAVYYCNAYWKYWRTNGPGTKYNYWGQGTQVTVSS
  polyreactivity (PSR sort gate): high polyreactivity

## QVQLVESGGGLVQAGGSLRLSCAASGSTFGSYAMGWYRQAPGKERELVAAISTRGGRTRYADSVKVRFTISRDNAKNTVYLQMNSLKPQDTAVDYCATRIGSRVYNVSGYYRKDDYWGQGTQVTVSS
  polyreactivity (PSR sort gate): high polyreactivity

## QVQLVESGGGLVQAGGSLRLSCAASGSTFGSYAMRWYRQAPGKERELVAAITASGGSTYYADSVKGRFTISRDNAKNTVYLQMNSLKPEDTAVYYCAADTTYIPLSIEYDYWGQGTQVTVSS
  polyreactivity (PSR sort gate): low polyreactivity

## QVQLVESGGGLVQAGGSLRLSCAASGSTFGSYAMVWYRQAPGKERELVADISSRGASTYYADSVKGRFTISRDNAKNTVYLQMNRLKPEDTAVYYCARDVYIWYGYGYFPEYEYWGQGTQVTVSS
  polyreactivity (PSR sort gate): low polyreactivity

## QVQLVESGGGLVQAGGSLRLSCAASGSTFGSYGMGWYRQAPGKERELVAVITYSGDRTYYADSVKGRFTISRDNAKNTVYLQMNSLKPEDTAVYYCAADRSYRVSEYDYWGQGTQVTVSS
  polyreactivity (PSR sort gate): low polyreactivity

## QVQLVESGGGLVQAGGSLRLSCAASGSTFGSYTKGWSRPAPGQERELVAAINWSGGNTYYADSVKGRFTISRDNAKNTVYLQMTSLKREDTAVYYCAAAFYIYGVEGDYWGQGTQVTVSS
  polyreactivity (PSR sort gate): low polyreactivity

## QVQLVESGGGLVQAGGSLRLSCAASGSTFGSYTMGWYRQAPGKEREFVAAIRWIGGSTYYADSVKGRFTISRDNAKNTVYLQMNSLKPEDTAVYYCNAKRRKHGYYYWGQGTQVTVSS
  polyreactivity (PSR sort gate): high polyreactivity

## QVQLVESGGGLVQAGGSLRLSCAASGSTFGTNAMGWYRQAPGKERELVAAITRGGNTYYADSVKGRFTISRDNAKNTVYLQMNSLKTEDTAVYYCNTYTRASRFDYWGQGTQVTVSS
  polyreactivity (PSR sort gate): high polyreactivity

## QVQLVESGGGLVQAGGSLRLSCAASGSTFGTYAMGCYRQAPGKARELVAAISGRGTSTYYADSVKGRFTISRDNAKITVYLQMNSLKPEDTAVYYCNAVFWSRSSHFDYWGQGTQVTVSS
  polyreactivity (PSR sort gate): high polyreactivity

## QVQLVESGGGLVQAGGSLRLSCAASGSTFGTYAMGWYRQAPGKERELVAAISSGDSTTYADSVKGRFTISRDNAKNTVYLQMNSLKPEDTAVYYCAARVPYKSDYWGQGTQVTVSS
  polyreactivity (PSR sort gate): low polyreactivity

## QVQLVESGGGLVQAGGSLRLSCAASGSTFGTYAMGWYRQAPGKERELVAAISSGGSTYYADSVKGRFTISRDNAKNTVYLQMNSLKPEDTAVYYCAAGYYWYVWGFGYWGQGTQVSVSS
  polyreactivity (PSR sort gate): low polyreactivity

## QVQLVESGGGLVQAGGSLRLSCAASGSTFGTYAMGWYRQAPGKERELVAAISYRGGSTYYADSVKGRFTISRDNAKNTVYLQMNSLKPEDTAVYYCATRKYAATGYDYWGQGTQVTVSS
  polyreactivity (PSR sort gate): high polyreactivity

## QVQLVESGGGLVQAGGSLRLSCAASGSTFGTYAMGWYRQAPGKERELVAVISWSDGRTYYADSVKGRFTISRDNAKNTVYLQMISLKPEDTAVYYCNARLDTFVPRYGYWGQGTQVTVSS
  polyreactivity (PSR sort gate): high polyreactivity

## QVQLVESGGGLVQAGGSLRLSCAASGSTFGVNAMGWYRPAPGKERELVAAISRSGTSTYYADSVKGRFTISRDNAKNTVYLLMNSLKPEDTAVYYCAAQYFSGYHKYGYWGQGTQVTVSS
  polyreactivity (PSR sort gate): high polyreactivity

## QVQLVESGGGLVQAGGSLRLSCAASGSTFGVNAMGWYRQAPGKEREFVAAITSSSGSTYYADSVKGRFTISRDNAKNTVYLQMNSLKPEDTAVYYCNKRYIQLYDYWGQGTQVTVSS
  polyreactivity (PSR sort gate): low polyreactivity

## QVQLVESGGGLVQAGGSLRLSCAASGSTFGVYAMGWYRQAPGKERELVAAINYSGRTYYADSVKGRFTISRDNAKNTVYLQMNSLKPEDTAVYYCAADWYWSRHEYEYWGQGTQVTVSS
  polyreactivity (PSR sort gate): high polyreactivity

## QVQLVESGGGLVQAGGSLRLSCAASGSTFGWYAMGWYREAPGKERELVAAISWLGTSTYYADSVKGRFTISRDNAKNTVYLQLNSLKPEDTAVYFCAADAYDVYYAYYYWGQGTQVTVSS
  polyreactivity (PSR sort gate): high polyreactivity

## QVQLVESGGGLVQAGGSLRLSCAASGSTFGWYAMGWYRQAPGKESELVAAIRTSGGDSTYYADSVKGRFTISRDNAKNTVYLQMNSLKPEDTAVYYCAKTVWWYYRYPFDYWGQGTQGTVSS
  polyreactivity (PSR sort gate): low polyreactivity

## QVQLVESGGGLVQAGGSLRLSCAASGSTFGYNAMGWYRPAPGKERELVARITSSGGSTYYADSVKGRFTISRDNAKISVYLQMNSLKPEDTAVYYCAAGYPYRAVYRYYYWGQGTQVTVSS
  polyreactivity (PSR sort gate): high polyreactivity

## QVQLVESGGGLVQAGGSLRLSCAASGSTFGYNAMGWYRQAAGKERELVAGISSGGSTNYADSVKGRFTISRDNAKNTVYLQMNSLKPEDTAVYYCAAYKYDHRVDTGYDYWGQGTQVTVSS
  polyreactivity (PSR sort gate): low polyreactivity

## QVQLVESGGGLVQAGGSLRLSCAASGSTFGYNAMGWYRQAPGKEREFVATIRYSGDRTYYADSVKGRFTISRDNAKNTVYLQMNSLKPEDTAVYYCAADLYYNSYGRYGRYYYWGQGTQVNVSS
  polyreactivity (PSR sort gate): high polyreactivity

## QVQLVESGGGLVQAGGSLRLSCAASGSTFGYNAMGWYRQAPGKERELVAAISFSSGRTYYADSVKGRFTISRDNAKNTVYLQMNSLKPEDTAVYYCAALQYRRRPYGAVERYDYWGQGTQVTVSS
  polyreactivity (PSR sort gate): high polyreactivity

## QVQLVESGGGLVQAGGSLRLSCAASGSTFGYNAMGWYRQAPGKERELVAAISSSGGSTYYADSVKGRFTISRDNAKNTVYLQMNSLKPEDTAVYYCATEFFQYYSTKGYDYWGQGTQVTVSS
  polyreactivity (PSR sort gate): low polyreactivity

## QVQLVESGGGLVQAGGSLRLSCAASGSTFGYNAMGWYRQAPGKERELVAAITRSGGSTDYADSVKGRFTISRDNAKNTVYLQMNSLKPEDTAVYYCAADGDHPWWSQYDYWGQGTQVTVSS
  polyreactivity (PSR sort gate): low polyreactivity

## QVQLVESGGGLVQAGGSLRLSCAASGSTFGYNARGWYRQAPGKEREFVARIRSSGSTTYADSVKGRFTISRDNAKNTVYLQMNSLKPEDTAVYYCAARRLYGYSPWVRFGSYDYWGQGTQVTVSS
  polyreactivity (PSR sort gate): high polyreactivity

## QVQLVESGGGLVQAGGSLRLSCAASGSTFGYNDMGRYRQAPGKERELVADSSYSGDSTYSADSVKGRFTISRDNAQNTVYLQMNSLKPEDTAVYYCKADRFADYDDWGQGTQVTVSS
  polyreactivity (PSR sort gate): low polyreactivity
